Experimental data published in patent US20190112365A1 (EISAI R AND D MANAGEMENT, published 2019).
Residue numbers refer to the chain shown, from its start. Where “and” joins values, the source holds several entries; their conditions need not be identical. Identical values can stand only once.

T1: HVPGG site of Tau (15-mer array peptides containing HVPGG) (human)
T1 peptide: HVPGG

B1: 7G6-HCzu8-LCzu6 (antibody, human IgG1, kappa, V domains shown)
VH: QVQLVQSGAEVKKPGASVKVSCKASGYTFTTYWITWVRQAPGQGLEWMGDIYPGSSISNYAQKFQGRVTMTRDTSTSTVYMELSSLRSEDTAVYYCAREDGYDAWFAYWGQGTLVTVSS
VL: DVVMTQSPLSLPVTLGQPASISCRSSQSILHSNGNTYLEWYQQRPGQSPRLLISKVSNRFSGVPDRFSGSGSGTDFTLKISRVEAEDVGVYYCFQGSHVPFTFGQGTKLEIKR
modifications: N-terminal pyroglutamic acid
notes: humanized, human IgG1 kappa; also called 7G6-HCzu8-LCzu6-HEK; ATCC PTA-124523
B2: 7G6-HCzu25-LCzu18 (antibody, human IgG1, kappa)
heavy: not shown
light: DIQMTQSPSSLSASVGDRVTITCRSSQSILHSNGNTYLEWYQQKPGKAPKLLISKVSNRFSGVPSRFSGSGSGTDFTLTISSLQPEDFATYYCFQGSHVPFTFGQGTKLEIKRTVAAPSVFIFPPSDEQLKSGTASVVCLLNNFYPREAKVQWKVDNALQSGNSQESVTEQDSKDSTYSLSSTLTLSKADYEKHKVYACEVTHQGLSSPVTKSFNRGEC
notes: humanized, human IgG1 kappa; also called 7G6-zuHC25-zuLC18; 7G6-HCzu25-LCzu18-HEK
B3: 7G6-HCzu23-LCzu15 (antibody, human IgG1, kappa)
heavy: not shown
light: B2 light with I2V
notes: humanized, human IgG1 kappa
B4: 7G6-HCzu24-LCzu15 (antibody, human IgG1, kappa)
heavy: not shown
light: B2 light with I2V
notes: humanized, human IgG1 kappa
B5: 7G6-HCzu23-LCzu18 (antibody, human IgG1, kappa)
heavy: not shown
light: B2 light
notes: humanized, human IgG1 kappa
B6: 7G6-HCzu25-LCzu15 (antibody, human IgG1, kappa)
heavy: not shown
light: B2 light with I2V
notes: humanized, human IgG1 kappa
B7: 7G6-HCzu24-LCzu18 (antibody, human IgG1, kappa)
heavy: not shown
light: B2 light
notes: humanized, human IgG1 kappa
B8: 7G6-HCzu8-LCzu21 (antibody, human IgG1, kappa, V domains shown)
VH: B1 VH
VL: B1 VL with Y41F
modifications: N-terminal pyroglutamic acid
notes: humanized, human IgG1 kappa

Target: T2, Human Tau 2N4R, wild type, recombinant full length (human, UniProt P10636 2-758)
T2 construct: Full length 2N4R isoform; monomer in SPR and ELISA; heparin-induced aggregates or seeds in the functional assays; also called Tau441; Tau-441
Test: SPR BIAcore, mAb captured by anti-human IgG, Tau flowed, 1:1 Langmuir
Experimental: (§1) All experiments were performed using a BIAcore™ T-100 instrument (GE Healthcare). 10 μL anti-human IgG (monoclonal mouse anti-human Fc) from human antibody capture kit (GE Healthcare) was diluted to 25 μL/mL in 200 μL final immobilization buffer (10 mM sodium acetate, pH 5.0). The flow rate was set to 5 μL/min, flowpath 1. Fifty μL N-hydroxysuccinamide (NETS) and 50 μL 1-ethyl-3-(3-dimethylaminopropyl) carbidiimide (EDC) were mixed and injected for 420 sec to activate the CM5 chip surface. The diluted antibody was injected for 360 seconds followed by 1 M ethanolamine for 420 seconds. The flowpath was then switched to flowpath 2. A new EDC/NHS mixture was prepared and the procedure was repeated for flow cell 2. The surface was conditioned by 2 injections of 30 sec using flowpath 1, 2 at 30 μL/min of 3M MgCl₂. For the anti-mouse surface, 10 μL anti-mouse IgG (polyclonal rabbit anti-mouse IgG) from mouse antibody capture kit (GE Healthcare) was diluted to 30 μL/mL in 324 μL final immobilization buffer (10 mM sodium acetate, pH 5.0). The flow rate was set to 5 μL/min, flowpath 3. Fifty μL NHS and 50 μL EDC were mixed and injected for 420 sec to activate the chip surface. The diluted antibody was injected for 420 sec. 1 M ethanolamine was injected for 420 sec. Flow path was switched to flowpath 4. A new EDC/NHS mixture was prepared and the procedure was repeated for flow cell 4. The surface was conditioned by 2 injections of 30 sec using flowpath 3, 4 at 30 μL/min of 10 mM glycine, pH 1.7.
Binding of humanized and mouse antibodies were analyzed by surface plasmon resonance (BIAcore™) to determine their relative association rates (kₐ), dissociation rates (kd), and equilibrium binding constants (KD). Anti-mouse or anti-human antibodies were immobilized on a CM5 chip and sample mAbs were captured on the chip. 2N4R Tau was flowed over the chip and binding observed. The binding constants kₐ, kd, and KD were determined using a 1:1 Langmuir fitting model.

T2 sequence (P10636 other isoform, or with tags, fused parts or gaps limits assumed): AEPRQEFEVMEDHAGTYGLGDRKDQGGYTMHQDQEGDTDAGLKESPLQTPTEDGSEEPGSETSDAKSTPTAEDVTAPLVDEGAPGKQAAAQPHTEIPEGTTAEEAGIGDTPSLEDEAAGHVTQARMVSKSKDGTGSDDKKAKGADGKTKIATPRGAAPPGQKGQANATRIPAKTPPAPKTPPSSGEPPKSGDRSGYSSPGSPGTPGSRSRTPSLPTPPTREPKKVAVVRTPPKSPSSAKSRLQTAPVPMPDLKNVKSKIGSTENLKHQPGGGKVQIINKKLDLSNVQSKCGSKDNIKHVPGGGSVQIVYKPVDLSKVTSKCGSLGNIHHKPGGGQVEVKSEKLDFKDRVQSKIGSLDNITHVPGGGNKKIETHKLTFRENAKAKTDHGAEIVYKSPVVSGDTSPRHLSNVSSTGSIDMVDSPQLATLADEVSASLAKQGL

Binder	Kd [nM]	koff [s⁻¹]	kon [M⁻¹ s⁻¹]
B1	0.0968	0.00021	2.17e+06

Target: T2, Human Tau 2N4R, wild type, recombinant …
Test: SPR BIAcore, anti-human Fc capture, multi-cycle, 1:1 Langmuir, average of flow cells
Experimental: A 0 nM Tau protein solution was prepared by adding 3 mL Assay Running Buffer to labeled 5 mL tube. Analyte dilutions were transferred to labeled 4 mL plastic vials and capped with type 5 caps, vortexed briefly to remove any air bubbles adhered to tube walls or bottom, and placed in Sample and Reagent Rack 1. For chip conditioning analyte sample, 5 μL of 1 μM Tau protein solution supernatant was removed and diluted to 500 μL in Assay Buffer in a 7 mm plastic vial, capped, vortexed briefly to dislodge adhered air bubbles, and placed in Sample and Reagent Rack 1. Humanized antibodies were captured on flow cells 2, 3, and 4 sequentially at a flow rate of 10 μL/min for a contact time of 36 sec. Dilutions of Tau protein were injected over all 4 flow cells at a flow rate of 30 μL/min for a contact time of 300 sec. Dissociation was followed for 1800 sec. Following each cycle, the surface was regenerated by two sequential injections of 30 sec at 30 μL/min of 3 M MgCl₂ over all four flow cells. After the run, kinetic data fitting was performed using a 1:1 Langmuir model.
The affinity of recombinant human wild-type 2N4R Tau protein to 7G6-HCzu25LCzu18 antibody was determined using an antibody-capture format assay. Following capture of 7G6-HCzu25LCzu18 antibody, human Tau protein was injected over the ligand surface for 300 sec, followed by observation and measurement of dissociation for 1800 sec. After each antibody capture, Tau protein binding, and dissociation cycle, the chip surface was regenerated to the anti-human antibody capture surface using 3M MgCl₂, as required by the manufacturer. Tau protein was analyzed in a concentration range from 100 nM to 0.046 nM (3-fold diluted). The assay was performed in multi-cycle mode, such that a dissociation was performed for each tau protein injection. Each ligand was analyzed on all three flow cells (fc2, fc3, and fc4) in triplicate, in order to eliminate any flow cell-specific effects.
Binding data was double-referenced, meaning referenced to both fc1 with no ligand bound and to buffer analyte injections (0 nM Tau protein). […]

Binder	Kd	koff	kon
B2	0.0657 nM and 0.0659 nM and 0.0645 nM	0.000126 s⁻¹ (2×) and 0.000123 s⁻¹	1.92e+06 M⁻¹ s⁻¹ and 1.91e+06 M⁻¹ s⁻¹

Target: T1, HVPGG site of Tau (15-mer array …)
Test: peptide microarray; HVPGG site of the second repeat region against HKPGG (repeat region 3)
Experimental: (§2) The diluted antibody was incubated on the chip for 16 hours at 4° C. with shaking at 140 rpm. Primary antibody was removed and the chip was washed in PBS (pH 7.4)/0.05% Tween 20. Wash buffer was removed and goat anti-mouse IgG (H+L) DyLight™680 (1:5000) and an anti-HA tag DyLight™ 800 (1:2000) in the same buffer as the primary antibody was then incubated for 45 minutes at room temperature on the chip. Detection antibody was removed and the chip was washed once again as previously. Fluorescence images were acquired on the LI-COR Odyssey™ Imaging System and the microarray data was finally analyzed using the PepSlide™ Analyser software.

Binder	fold preference in binding (average signal intensities) [fold]
B2	100
B1	104

Target: T1, HVPGG site of Tau (15-mer array …)
Test: peptide microarray; HVPGG site of the second repeat region against HQPGG (repeat region 1)
Experimental: as §2

Binder	fold preference in binding (average signal intensities) [fold]
B2	65
B1	108

Target: T2, Human Tau 2N4R, wild type, recombinant …
Test: SPR BIAcore, biotinylated mAb on streptavidin (CAP) chip, single cycle, 1:1 Langmuir
Experimental: (§3) 400 μg of each antibody was diluted to 2 mg/mL and buffer-exchanged into 0.1 M sodium bicarbonate, pH 8.3 using 0.5 mL Zeba™ 40 kDa MWCO desalting columns (Thermo). NHS-PEG4-biotin, prepared immediately before use by dissolving in water to a 20 mM final stock concentration, was added to antibodies at a 5:1 molar ratio (biotin:MAb) and conjugated for 1 hr at room temperature. Excess biotin was removed by two sequential buffer exchanges into 1×DPBS using 0.5 mL Zeba™ 40 kDa MWCO desalting columns. For the BIAcore™ assay, antibodies were diluted to 2 μg/mL in PBS-P+/0.2% BSA (the same preparation used for the running buffer), centrifuged at 14,000 g for 5 min at room temperature, and the supernatant transferred to a new tube. Injection time was subsequently determined for each antibody to achieve a capture level of ˜225 RU.
(§4) Biotinylated humanized and mouse mAbs were captured on a streptavidin-coated chip and kₐ, kd, and KD were determined for binding to Tau (Table 11). […] The affinity of 7G6-HCzu8-LCzu6, 7G6-HCzu24-LCzu15, 7G6-HCzu24-LCzu18, 7G6-HCzu25-LCzu15, and 7G6-HCzu25-LCzu18 were all similar.

Binder	Kd [nM]	koff [s⁻¹]	kon [M⁻¹ s⁻¹]
B3	0.152	0.000332	2.18e+06
B4	0.0898	0.000487	5.42e+06
B5	0.182	0.00039	2.14e+06
B2	0.0881	0.000307	3.5e+06
B6	0.0998	0.00027	2.71e+06
B7	0.0797	0.000304	3.81e+06
B1	0.0915	0.000258	2.82e+06
B8	0.138	0.000313	2.28e+06

Target: T2, Human Tau 2N4R, wild type, recombinant …
Test: SPR, streptavidin capture; against 7G6-HCzu8-LCzu6
Experimental: as §3, §4

Binder	fold drop in affinity [fold]
B8	< 2

Target: T1, HVPGG site of Tau (15-mer array …)
Test: peptide microarray; HVPGG site of the fourth repeat region against HQPGG (repeat region 1)
Experimental: as §2

Binder	fold preference in binding (average signal intensities) [fold]
B2	77
B1	99

Target: T1, HVPGG site of Tau (15-mer array …)
Test: peptide microarray; HVPGG site of the fourth repeat region against HKPGG (repeat region 3)
Experimental: as §2

Binder	fold preference in binding (average signal intensities) [fold]
B2	119
B1	95

Target: T2, Human Tau 2N4R, wild type, recombinant …
Test: SPR, streptavidin capture; against ms7G6
Experimental: as §3, §4

Binder	fold drop in affinity [fold]
B4	~1.4
B2	~1.4
B6	~1.4
B7	~1.4
B1	~1.4

Target: T2, Human Tau 2N4R, wild type, recombinant …
Test: SPR BIAcore, anti-human capture, monomeric Tau, 1:1 Langmuir
Experimental: as §1
Tau binding for humanized mAbs was analyzed by BIAcore™ in two different formats. The first format was performed as above, i.e. mAbs were captured with an immobilized species-specific anti-Fc antibody. […] In the second format, biotinylated mAbs were captured on a streptavidin-coated chip. This latter format allowed direct comparison of Tau binding affinity between humanized and the parental mouse antibody since the capture method was identical.
The final humanized mAbs were analyzed by BIAcore™ to determine the kₐ, kd, and KD for binding to Tau as above (Table 10).

Binder	Kd [nM]	koff [s⁻¹]	kon [M⁻¹ s⁻¹]
B3	0.25	0.00039	1.61e+06
B4	0.13	0.00011	809000
B5	0.22	0.00037	1.71e+06
B2	0.13	0.00014	1.11e+06
B6	0.13	0.00013	985000
B7	0.09	9e-05	948000
B1	0.15	0.00022	1.49e+06

Target: T2, Human Tau 2N4R, wild type, recombinant …
Test: SPR, streptavidin capture; against 7G6-HCzu24 and 7G6-HCzu25 mAbs
Experimental: as §3, §4

Binder	fold drop in affinity [fold]
B3	~2
B5	~2
